Here are results for 1 molecule from publication PMC3738494, “A Systematic Analysis of Host Factors Reveals a Med23-Interferon-λ Regulatory Axis against Herpes Simplex Virus Type 1 Replication” (PLoS Pathogens, 2013).

The target of the experiment is T1, Med23, myc-tagged fusion protein expressed in HEK cells (human, UniProt Q9ULK4 1-1368).
T1 sequence (looked up): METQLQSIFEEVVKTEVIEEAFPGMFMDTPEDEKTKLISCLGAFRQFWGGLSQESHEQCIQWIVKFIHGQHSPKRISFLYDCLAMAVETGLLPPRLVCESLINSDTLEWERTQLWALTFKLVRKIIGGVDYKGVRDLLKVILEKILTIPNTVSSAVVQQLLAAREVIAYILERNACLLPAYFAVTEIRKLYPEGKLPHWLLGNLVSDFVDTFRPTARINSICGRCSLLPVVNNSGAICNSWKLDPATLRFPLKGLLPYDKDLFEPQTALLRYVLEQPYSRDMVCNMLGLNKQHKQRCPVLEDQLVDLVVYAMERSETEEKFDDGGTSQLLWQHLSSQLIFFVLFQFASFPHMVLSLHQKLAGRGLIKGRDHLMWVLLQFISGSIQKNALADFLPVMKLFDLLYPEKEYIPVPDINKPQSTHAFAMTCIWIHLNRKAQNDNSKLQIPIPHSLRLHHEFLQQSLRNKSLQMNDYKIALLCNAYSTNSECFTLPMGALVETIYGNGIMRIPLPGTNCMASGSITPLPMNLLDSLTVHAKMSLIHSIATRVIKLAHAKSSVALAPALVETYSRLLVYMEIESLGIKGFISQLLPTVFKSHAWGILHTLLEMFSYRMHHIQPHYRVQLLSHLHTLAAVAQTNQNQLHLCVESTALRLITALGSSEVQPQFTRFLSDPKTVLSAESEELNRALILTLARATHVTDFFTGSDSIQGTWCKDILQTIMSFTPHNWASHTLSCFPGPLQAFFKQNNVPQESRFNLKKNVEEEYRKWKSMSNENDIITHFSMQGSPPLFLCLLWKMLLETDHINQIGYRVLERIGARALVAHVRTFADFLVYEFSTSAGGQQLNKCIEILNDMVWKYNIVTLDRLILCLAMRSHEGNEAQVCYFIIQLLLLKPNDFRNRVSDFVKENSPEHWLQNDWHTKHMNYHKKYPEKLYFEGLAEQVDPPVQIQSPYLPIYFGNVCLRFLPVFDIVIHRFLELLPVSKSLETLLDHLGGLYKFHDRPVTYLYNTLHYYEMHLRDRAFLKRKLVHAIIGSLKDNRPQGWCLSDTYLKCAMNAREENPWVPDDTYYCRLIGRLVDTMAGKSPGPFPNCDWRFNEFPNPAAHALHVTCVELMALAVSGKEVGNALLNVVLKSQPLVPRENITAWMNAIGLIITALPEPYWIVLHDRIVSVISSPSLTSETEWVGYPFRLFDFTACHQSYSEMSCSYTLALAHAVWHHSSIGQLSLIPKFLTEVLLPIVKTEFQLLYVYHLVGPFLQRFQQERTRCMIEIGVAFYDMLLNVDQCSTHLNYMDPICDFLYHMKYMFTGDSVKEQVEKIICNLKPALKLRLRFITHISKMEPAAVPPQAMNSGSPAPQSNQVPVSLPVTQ
The experiment in a line: cell-based or functional assay.

B1: IRF7, HA-tagged, expressed in HEK cells (natural protein, human, UniProt Q92985 1-503, looked up)
chain: MALAPERAAPRVLFGEWLLGEISSGCYEGLQWLDEARTCFRVPWKHFARKDLSEADARIFKAWAVARGRWPPSSRGGGPPPEAETAERAGWKTNFRCALRSTRRFVMLRDNSGDPADPHKVYALSRELCWREGPGTDQTEAEAPAAVPPPQGGPPGPFLAHTHAGLQAPGPLPAPAGDKGDLLLQAVQQSCLADHLLTASWGADPVPTKAPGEGQEGLPLTGACAGGPGLPAGELYGWAVETTPSPGPQPAALTTGEAAAPESPHQAEPYLSPSPSACTAVQEPSPGALDVTIMYKGRTVLQKVVGHPSCTFLYGPPDPAVRATDPQQVAFPSPAELPDQKQLRYTEELLRHVAPGLHLELRGPQLWARRMGKCKVYWEVGGPPGSASPSTPACLLPRNCDTPIFDFRVFFQELVEFRARQRRGSPRYTIYLGFGQDLSAGRPKEKSLVLVKLEPWLCRVHLEGTQREGVSSLDSSSLSLCLSSANSLYDDIECFLMELEQPA
With B1, the “IFN-λ1 promoter luciferase reporter in A549 cells, IRF7 co-expressed with Med23 (IRF7 alone ~9-fold over background)” value is roughly 18 fold and the “IFN-λ3 in the supernatant of A549 cells by ELISA, Med23 co-expressed with IRF7 against either alone” value was greater than 2 fold.
